From US20250352667A1
Each block holds one binder with its values, some of them ahead of it.

Tests used:
[1] = molecular target: KEAP1 (wild-type full-length), His-tagged (human) (UniProt Q14145); assay: AlphaScreen; 9.6 nM FLAG-NRF2, 150 nM His-KEAP1; Rep 3; control for I86V
[2] = molecular target: KEAP1 (wild-type full-length), His-tagged (human) (UniProt Q14145); assay: AlphaScreen; NRF2 wt isoform 1 19.2 nM, KEAP1 150 nM; signal against NRF2-only control; control for I86V
[3] = molecular target: KEAP1 (wild-type full-length), His-tagged (human) (UniProt Q14145); assay: AlphaScreen; 1228.8 nM FLAG-NRF2, 150 nM His-KEAP1; Rep 1; control for I28V
[4] = molecular target: KEAP1 (wild-type full-length), His-tagged (human) (UniProt Q14145); assay: AlphaScreen; 38.4 nM FLAG-NRF2, 150 nM His-KEAP1; signal against NRF2 only; control for I86V
[5] = molecular target: KEAP1 (wild-type full-length), His-tagged (human) (UniProt Q14145); assay: AlphaScreen; 9.6 nM FLAG-NRF2, 150 nM His-KEAP1; Rep 1; control for I28V
[6] = molecular target: KEAP1 (wild-type full-length), His-tagged (human) (UniProt Q14145); assay: AlphaScreen; 76.8 nM FLAG-NRF2, 150 nM His-KEAP1; Rep 2; control for I86V
[7] = molecular target: KEAP1 (wild-type full-length), His-tagged (human) (UniProt Q14145); assay: AlphaScreen; 9.6 nM FLAG-NRF2, 150 nM His-KEAP1; Rep 2; control for I86V
[8] = molecular target: KEAP1 (wild-type full-length), His-tagged (human) (UniProt Q14145); assay: AlphaScreen; 38.4 nM FLAG-NRF2, 150 nM His-KEAP1; Rep 3; control for I86V
[9] = molecular target: KEAP1 (wild-type full-length), His-tagged (human) (UniProt Q14145); assay: AlphaScreen; NRF2 wt isoform 1 38.4 nM, KEAP1 150 nM; set as the 100 % reference for Q75R
[10] = molecular target: KEAP1 (wild-type full-length), His-tagged (human) (UniProt Q14145); assay: AlphaScreen; 76.8 nM FLAG-NRF2, 150 nM His-KEAP1; signal against NRF2 only; control for I86V
[11] = molecular target: KEAP1 (wild-type full-length), His-tagged (human) (UniProt Q14145); assay: AlphaScreen; 76.8 nM FLAG-NRF2, 150 nM His-KEAP1; Rep 1; control for I86V
[12] = molecular target: KEAP1 (wild-type full-length), His-tagged (human) (UniProt Q14145); assay: AlphaScreen; 1228.8 nM FLAG-NRF2, 150 nM His-KEAP1; Rep 3; control for I86V
[13] = molecular target: KEAP1 (wild-type full-length), His-tagged (human) (UniProt Q14145); assay: AlphaScreen; 19.2 nM FLAG-NRF2, 150 nM His-KEAP1; Repeat 1 (same value as in Table 26)
[14] = molecular target: KEAP1 (wild-type full-length), His-tagged (human) (UniProt Q14145); assay: AlphaScreen; FLAG-NRF2 wt isoform 1 614.4 nM, His-KEAP1 150 nM; Rep 2; positive control for Q75R
[15] = molecular target: KEAP1 (wild-type full-length), His-tagged (human) (UniProt Q14145); assay: AlphaScreen; FLAG-NRF2 I86V 38.4 nM, His-KEAP1 150 nM; Rep 3
[16] = molecular target: KEAP1 (wild-type full-length), His-tagged (human) (UniProt Q14145); assay: AlphaScreen; NRF2 I86V 153.6 nM, KEAP1 150 nM; signal against NRF2-only control
[17] = molecular target: KEAP1 (wild-type full-length), His-tagged (human) (UniProt Q14145); assay: AlphaScreen; FLAG-NRF2 I86V 4.8 nM, His-KEAP1 150 nM; Rep 1
[18] = molecular target: KEAP1 (wild-type full-length), His-tagged (human) (UniProt Q14145); assay: AlphaScreen; NRF2 I86V 1228.8 nM, KEAP1 150 nM; signal against NRF2-only control
[19] = molecular target: KEAP1 (wild-type full-length), His-tagged (human) (UniProt Q14145); assay: AlphaScreen; FLAG-NRF2 I86V 153.6 nM, His-KEAP1 150 nM; Rep 3
[20] = molecular target: KEAP1 (wild-type full-length), His-tagged (human) (UniProt Q14145); assay: AlphaScreen; NRF2 I86V 76.8 nM, KEAP1 150 nM; signal against NRF2-only control
[21] = molecular target: KEAP1 (wild-type full-length), His-tagged (human) (UniProt Q14145); assay: AlphaScreen; 614.4 nM FLAG-NRF2, 150 nM His-KEAP1; Rep 2
[22] = molecular target: KEAP1 (wild-type full-length), His-tagged (human) (UniProt Q14145); assay: AlphaScreen; 614.4 nM FLAG-NRF2, 150 nM His-KEAP1; signal against NRF2 only
[23] = molecular target: KEAP1 (wild-type full-length), His-tagged (human) (UniProt Q14145); assay: AlphaScreen; 307.2 nM FLAG-NRF2, 150 nM His-KEAP1; signal against NRF2 only
[24] = molecular target: KEAP1 (wild-type full-length), His-tagged (human) (UniProt Q14145); assay: AlphaScreen; 2.4 nM FLAG-NRF2, 150 nM His-KEAP1; Rep 1
[25] = molecular target: KEAP1 (wild-type full-length), His-tagged (human) (UniProt Q14145); assay: AlphaScreen; FLAG-NRF2 Q75R 9.6 nM, His-KEAP1 150 nM; Rep 2
[26] = molecular target: KEAP1 (wild-type full-length), His-tagged (human) (UniProt Q14145); assay: AlphaScreen; NRF2 Q75R 9.6 nM, KEAP1 150 nM; relative to wild-type NRF2 isoform 1 (100 %)
[27] = molecular target: KEAP1 (wild-type full-length), His-tagged (human) (UniProt Q14145); assay: AlphaScreen; NRF2 Q75R 614.4 nM, KEAP1 150 nM; signal against NRF2-only control

Sequence of KEAP1 (wild-type full-length), His-tagged (human) (Q14145 2-624 limits assumed): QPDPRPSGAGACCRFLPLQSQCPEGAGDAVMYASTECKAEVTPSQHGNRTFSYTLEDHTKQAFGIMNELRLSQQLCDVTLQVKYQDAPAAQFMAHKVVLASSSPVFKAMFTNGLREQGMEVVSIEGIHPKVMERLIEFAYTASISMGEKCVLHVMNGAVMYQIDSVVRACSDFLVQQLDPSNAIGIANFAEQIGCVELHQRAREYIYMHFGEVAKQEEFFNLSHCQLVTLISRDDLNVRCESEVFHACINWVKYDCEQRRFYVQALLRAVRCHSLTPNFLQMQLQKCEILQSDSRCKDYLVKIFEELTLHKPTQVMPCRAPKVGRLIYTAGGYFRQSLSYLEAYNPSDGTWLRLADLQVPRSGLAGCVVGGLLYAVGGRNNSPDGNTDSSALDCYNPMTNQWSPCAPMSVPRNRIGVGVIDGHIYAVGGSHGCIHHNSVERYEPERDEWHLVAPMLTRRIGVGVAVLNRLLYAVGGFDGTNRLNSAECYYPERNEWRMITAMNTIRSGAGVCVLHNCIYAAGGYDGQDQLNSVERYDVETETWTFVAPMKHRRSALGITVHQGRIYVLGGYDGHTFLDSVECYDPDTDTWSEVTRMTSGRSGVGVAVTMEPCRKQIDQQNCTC

- A-counts [1]: 2410 A-counts
- S/N [2]: 4.1
- A-counts [3]: 1450 A-counts
- S/N [4]: 3
- A-counts [5]: 1590 A-counts
- A-counts [6]: 2780 A-counts
- A-counts [7]: 2720 A-counts
- A-counts [8]: 3130 A-counts
- Binding Percentage [9]: 100%
- S/N [10]: 2.4
- A-counts [11]: 3020 A-counts
- A-counts [12]: 2610 A-counts
- A-counts [13]: 1980 A-counts
- A-counts (NRF2 plus KEAP1) [14]: 1710 A-counts
B1: NRF2 isoform 1 (wild-type full-length), FLAG-tagged (protein)
chain: MMDLELPPPGLPSQQDMDLIDILWRQDIDLGVSREVFDFSQRRKEYELEKQKKLEKERQEQLQKEQEKAFFAQLQLDEETGEFLPIQPAQHIQSETSGSANYSQVAHIPKSDALYFDDCMQLLAQTFPFVDDNEVSSATFQSLVPDIPGHIESPVFIATNQAQSPETSVAQVAPVDLDGMQQDIEQVWEELLSIPELQCLNIENDKLVETTMVPSPEAKLTEVDNYHFYSSIPSMEKEVGNCSPHFLNAFEDSFSSILSTEDPNQLTVNSLNSDATVNTDFGDEFYSAFIAEPSISNSMPSPATLSHSLSELLNGPIDVSDLSLCKAFNQNHPESTAEFNDSDSGISLNTSPSVASPEHSVESSSYGDTLLGLSDSEVEELDSAPGSVKQNGPKTPVHSSGDMVQPLSPSQGQSTHVHDAQCENTPEKELPVSPGHRKTPFTKDKHSSRLEAHLTRDELRAKALHIPFPVEKIINLPVVDFNEMMSKEQFNEAQLALIRDIRRRGKNKVAAQNCRKRKLENIVELEQDLDHLKDEKEKLLKEKGENDKSLHLLKKQLSTLYLEVFSMLRDEDGKPYSPSEYSLQQTRDGNVFLVPKSKKPDVKKN

- A-counts (NRF2 plus KEAP1) [15]: 2930 A-counts
- S/N [16]: 2
- A-counts (NRF2 plus KEAP1) [17]: 2170 A-counts
- S/N [18]: 0.9
- A-counts (NRF2 plus KEAP1) [19]: 2500 A-counts
- S/N [20]: 2.3
B2: NRF2 isoform 1 (I86V full-length), FLAG-tagged (protein)
chain: MMDLELPPPGLPSQQDMDLIDILWRQDIDLGVSREVFDFSQRRKEYELEKQKKLEKERQEQLQKEQEKAFFAQLQLDEETGEFLPVQPAQHIQSETSGSANYSQVAHIPKSDALYFDDCMQLLAQTFPFVDDNEVSSATFQSLVPDIPGHIESPVFIATNQAQSPETSVAQVAPVDLDGMQQDIEQVWEELLSIPELQCLNIENDKLVETTMVPSPEAKLTEVDNYHFYSSIPSMEKEVGNCSPHFLNAFEDSFSSILSTEDPNQLTVNSLNSDATVNTDFGDEFYSAFIAEPSISNSMPSPATLSHSLSELLNGPIDVSDLSLCKAFNQNHPESTAEFNDSDSGISLNTSPSVASPEHSVESSSYGDTLLGLSDSEVEELDSAPGSVKQNGPKTPVHSSGDMVQPLSPSQGQSTHVHDAQCENTPEKELPVSPGHRKTPFTKDKHSSRLEAHLTRDELRAKALHIPFPVEKIINLPVVDFNEMMSKEQFNEAQLALIRDIRRRGKNKVAAQNCRKRKLENIVELEQDLDHLKDEKEKLLKEKGENDKSLHLLKKQLSTLYLEVFSMLRDEDGKPYSPSEYSLQQTRDGNVFLVPKSKKPDVKKN

- A-counts [21]: 1210 A-counts
- S/N [22]: 1
- S/N [23]: 1.2
- A-counts [24]: 697 A-counts
B3: NRF2 isoform 1 (I28V full-length), FLAG-tagged (protein)
chain: MMDLELPPPGLPSQQDMDLIDILWRQDVDLGVSREVFDFSQRRKEYELEKQKKLEKERQEQLQKEQEKAFFAQLQLDEETGEFLPIQPAQHIQSETSGSANYSQVAHIPKSDALYFDDCMQLLAQTFPFVDDNEVSSATFQSLVPDIPGHIESPVFIATNQAQSPETSVAQVAPVDLDGMQQDIEQVWEELLSIPELQCLNIENDKLVETTMVPSPEAKLTEVDNYHFYSSIPSMEKEVGNCSPHFLNAFEDSFSSILSTEDPNQLTVNSLNSDATVNTDFGDEFYSAFIAEPSISNSMPSPATLSHSLSELLNGPIDVSDLSLCKAFNQNHPESTAEFNDSDSGISLNTSPSVASPEHSVESSSYGDTLLGLSDSEVEELDSAPGSVKQNGPKTPVHSSGDMVQPLSPSQGQSTHVHDAQCENTPEKELPVSPGHRKTPFTKDKHSSRLEAHLTRDELRAKALHIPFPVEKIINLPVVDFNEMMSKEQFNEAQLALIRDIRRRGKNKVAAQNCRKRKLENIVELEQDLDHLKDEKEKLLKEKGENDKSLHLLKKQLSTLYLEVFSMLRDEDGKPYSPSEYSLQQTRDGNVFLVPKSKKPDVKKN

- A-counts (NRF2 plus KEAP1) [25]: 1090 A-counts
- Binding Percentage [26]: 72.4%
- S/N [27]: 0.8
B4: NRF2 isoform 1 (Q75R full-length), FLAG-tagged (protein)
chain: MMDLELPPPGLPSQQDMDLIDILWRQDIDLGVSREVFDFSQRRKEYELEKQKKLEKERQEQLQKEQEKAFFAQLRLDEETGEFLPIQPAQHIQSETSGSANYSQVAHIPKSDALYFDDCMQLLAQTFPFVDDNEVSSATFQSLVPDIPGHIESPVFIATNQAQSPETSVAQVAPVDLDGMQQDIEQVWEELLSIPELQCLNIENDKLVETTMVPSPEAKLTEVDNYHFYSSIPSMEKEVGNCSPHFLNAFEDSFSSILSTEDPNQLTVNSLNSDATVNTDFGDEFYSAFIAEPSISNSMPSPATLSHSLSELLNGPIDVSDLSLCKAFNQNHPESTAEFNDSDSGISLNTSPSVASPEHSVESSSYGDTLLGLSDSEVEELDSAPGSVKQNGPKTPVHSSGDMVQPLSPSQGQSTHVHDAQCENTPEKELPVSPGHRKTPFTKDKHSSRLEAHLTRDELRAKALHIPFPVEKIINLPVVDFNEMMSKEQFNEAQLALIRDIRRRGKNKVAAQNCRKRKLENIVELEQDLDHLKDEKEKLLKEKGENDKSLHLLKKQLSTLYLEVFSMLRDEDGKPYSPSEYSLQQTRDGNVFLVPKSKKPDVKKN
